From patent publication US20070292907A1, “Compositions and method for regulating ubiquitin-specific processing proteases” (priority 2005, published 2007) come the findings set out here.

What all share (test): covalent modification by UbVS (immunoblot of UbVS adducts)
Background: Immunoblotting shows a protein as a band on a membrane.

One assay has as its target T1, USP14-ΔUBL (91-494) (Homo sapiens, UniProt P54578).
T1 construct: 3.5 μM full-length USP14 or USP14-AUBL (91-494) was incubated with or without 157 nM bovine 19S complex (PA700); GST (N); made in house
Type of assay: biochemical. The conditions noted are these: both in the absence and presence of the 19S regulatory particle; FIG. 5C lanes 1 and 2. As for the experimental part: (§1) Ubiquitin vinylsulfone (UbVS) is a specific covalent inhibitor of a large subset of deubiquitinating enzymes, and thus can be used as an active site-directed probe for the detection of DUB activity (Borodovsky et al. (2001) supra). In order to examine the effect of proteasome association on the activity of USP14, the purified recombinant USP14 proteins were pre-incubated with or without the 19S RP and then assayed for covalent modification by UbVS.
(§2) UbVS was prepared as previously described (Borodovsky et al. (2001) supra). […] UbVS was then added to the sample to give approximately 1:1 stoichiometry with the 19S complex. Incubation was continued for another hour and then stopped by the addition of 2×SDS sample buffer. The reaction mixtures were resolved by 14% SDS-PAGE, transferred to nitrocellulose membrane, and the UbVS adducts were detected with mouse monoclonal anti-ubiquitin antibody (P4D1) (Santa Cruz).

The target in a further assay is T2, full-length USP14 (Homo sapiens, UniProt P54578).
T2 construct: 3.5 μM full-length USP14 or USP14-AUBL (91-494) was incubated with or without 157 nM bovine 19S complex (PA700); GST (N); made in house
T2 sequence (P54578 whole entry): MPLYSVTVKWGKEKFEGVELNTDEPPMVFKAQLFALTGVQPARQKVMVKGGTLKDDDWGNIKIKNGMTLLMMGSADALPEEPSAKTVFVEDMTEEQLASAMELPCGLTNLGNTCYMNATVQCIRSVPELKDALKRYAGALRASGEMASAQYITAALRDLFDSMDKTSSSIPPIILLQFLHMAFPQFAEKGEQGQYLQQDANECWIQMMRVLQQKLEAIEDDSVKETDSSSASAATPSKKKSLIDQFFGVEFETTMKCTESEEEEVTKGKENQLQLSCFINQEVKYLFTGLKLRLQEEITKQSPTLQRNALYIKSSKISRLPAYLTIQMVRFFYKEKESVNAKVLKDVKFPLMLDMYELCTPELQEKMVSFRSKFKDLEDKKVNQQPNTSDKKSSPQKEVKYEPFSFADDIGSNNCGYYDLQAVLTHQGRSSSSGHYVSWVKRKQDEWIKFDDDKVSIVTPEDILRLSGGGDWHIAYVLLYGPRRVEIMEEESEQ
Type of assay: biochemical. As for the experimental part: as §1, §2

The target in a further assay is T3, UCH37 (Bos taurus, UniProt Q9XSJ0).
T3 construct: UCH37 was present in the reactions as a stoichiometric component of the 19S RP complex; from tissue; host or cells: bovine 19S complex (PA700), gift
T3 sequence (Q9XSJ0 1-328): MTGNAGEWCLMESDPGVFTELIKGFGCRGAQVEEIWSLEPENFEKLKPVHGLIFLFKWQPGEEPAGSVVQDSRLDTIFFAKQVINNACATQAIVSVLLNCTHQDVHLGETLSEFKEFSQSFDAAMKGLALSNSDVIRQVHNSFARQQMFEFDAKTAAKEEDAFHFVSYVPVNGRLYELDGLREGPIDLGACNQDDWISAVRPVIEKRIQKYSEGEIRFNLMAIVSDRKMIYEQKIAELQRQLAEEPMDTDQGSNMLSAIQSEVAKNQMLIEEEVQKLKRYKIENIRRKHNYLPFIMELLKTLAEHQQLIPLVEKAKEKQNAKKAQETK
T3 sequence (A1L5A6 1-407 partner): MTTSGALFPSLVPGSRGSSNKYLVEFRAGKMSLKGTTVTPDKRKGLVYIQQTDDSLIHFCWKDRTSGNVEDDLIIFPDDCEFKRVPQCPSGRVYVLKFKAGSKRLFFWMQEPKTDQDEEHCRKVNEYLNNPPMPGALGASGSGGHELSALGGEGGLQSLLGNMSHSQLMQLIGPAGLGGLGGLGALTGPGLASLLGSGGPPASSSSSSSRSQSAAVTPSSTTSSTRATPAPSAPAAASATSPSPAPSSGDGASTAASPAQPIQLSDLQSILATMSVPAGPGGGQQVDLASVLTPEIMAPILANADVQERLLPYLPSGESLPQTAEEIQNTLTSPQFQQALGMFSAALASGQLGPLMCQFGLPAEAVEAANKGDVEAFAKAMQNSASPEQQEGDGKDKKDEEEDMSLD
The class given is biochemical, bovine. The conditions noted are these: reactions in the presence of 19S RP, relative to the USP14 adduct; FIG. 5C lanes 2 and 4. As for the experimental part:
Two factors contribute to this observation.
as §2

T1 sequence (P54578 91-494, stated change not applied): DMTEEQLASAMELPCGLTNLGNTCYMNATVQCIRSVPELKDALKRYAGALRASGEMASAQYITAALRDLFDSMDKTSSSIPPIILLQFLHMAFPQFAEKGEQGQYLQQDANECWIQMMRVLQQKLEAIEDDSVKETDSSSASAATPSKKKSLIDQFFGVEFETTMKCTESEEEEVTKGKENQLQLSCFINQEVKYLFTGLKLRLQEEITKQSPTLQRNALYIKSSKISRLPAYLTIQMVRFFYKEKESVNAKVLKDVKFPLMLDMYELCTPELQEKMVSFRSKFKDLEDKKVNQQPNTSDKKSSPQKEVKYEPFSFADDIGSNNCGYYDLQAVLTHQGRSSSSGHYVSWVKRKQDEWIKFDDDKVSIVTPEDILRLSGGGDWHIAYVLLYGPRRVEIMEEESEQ

For Ubiquitin vinylsulfone [UbVS], the “activity toward UbVS” value with USP14-ΔUBL (91-494) is given as “extremely low activity”. For the same substance, the USP14-UbVS complex formation result in the assay with full-length USP14 (full-length USP14 by itself, without 19S RP, FIG. 5C lane 3) was “no detectable USP14-UbVS complex formation”; with full-length USP14 (full-length USP14 with 19S regulatory particle added, FIG. 5C lane 4), “strong USP14-UbVS band”. Also, in the assay with UCH37, the UCH37-UbVS adduct detected entry is “only a trace amount”.
